# Source: US20230048960A1 (University of Washington, published 2023)
# Square brackets hold non-standard residues; d marks the D form. dNle = CCCC[C@@H](N)C(=O)O; Nle = CCCC[C@H](N)C(=O)O
# B1: AP531m (peptide)
# peptide: Ac-RGE[dC]N[dY]F[dW]MNEYYGW[dT]M[dN]M[dR][Nle]GK-NH2
# SMILES: CCCC[C@H](NC(=O)[C@@H](CCCNC(=N)N)NC(=O)[C@H](CCSC)NC(=O)[C@@H](CC(N)=O)NC(=O)[C@H](CCSC)NC(=O)[C@H](NC(=O)[C@H](Cc1c[nH]c2ccccc12)NC(=O)CNC(=O)[C@H](Cc1ccc(O)cc1)NC(=O)[C@H](Cc1ccc(O)cc1)NC(=O)[C@H](CCC(=O)O)NC(=O)[C@H](CC(N)=O)NC(=O)[C@H](CCSC)NC(=O)[C@@H](Cc1c[nH]c2ccccc12)NC(=O)[C@H](Cc1ccccc1)NC(=O)[C@@H](Cc1ccc(O)cc1)NC(=O)[C@H](CC(N)=O)NC(=O)[C@@H](CS)NC(=O)[C@H](CCC(=O)O)NC(=O)CNC(=O)[C@H](CCCNC(=N)N)NC(C)=O)[C@H](C)O)C(=O)NCC(=O)N[C@@H](CCCCN)C(N)=O
# B2: AP533m (peptide)
# peptide: Ac-RGE[dNle]N[dY]F[dW]MNEYYGW[dT]M[dN]M[dR]CGK-NH2
# SMILES: CCCC[C@@H](NC(=O)[C@H](CCC(=O)O)NC(=O)CNC(=O)[C@H](CCCNC(=N)N)NC(C)=O)C(=O)N[C@@H](CC(N)=O)C(=O)N[C@H](Cc1ccc(O)cc1)C(=O)N[C@@H](Cc1ccccc1)C(=O)N[C@H](Cc1c[nH]c2ccccc12)C(=O)N[C@@H](CCSC)C(=O)N[C@@H](CC(N)=O)C(=O)N[C@@H](CCC(=O)O)C(=O)N[C@@H](Cc1ccc(O)cc1)C(=O)N[C@@H](Cc1ccc(O)cc1)C(=O)NCC(=O)N[C@@H](Cc1c[nH]c2ccccc12)C(=O)N[C@@H](C(=O)N[C@@H](CCSC)C(=O)N[C@H](CC(N)=O)C(=O)N[C@@H](CCSC)C(=O)N[C@H](CCCNC(=N)N)C(=O)N[C@@H](CS)C(=O)NCC(=O)N[C@@H](CCCCN)C(N)=O)[C@H](C)O
# B3: AP532m (peptide)
# peptide: Ac-RGE[dM]C[dY]F[dW]MNEYYGW[dT]M[dN]M[dR][Nle]GK-NH2
# SMILES: CCCC[C@H](NC(=O)[C@@H](CCCNC(=N)N)NC(=O)[C@H](CCSC)NC(=O)[C@@H](CC(N)=O)NC(=O)[C@H](CCSC)NC(=O)[C@H](NC(=O)[C@H](Cc1c[nH]c2ccccc12)NC(=O)CNC(=O)[C@H](Cc1ccc(O)cc1)NC(=O)[C@H](Cc1ccc(O)cc1)NC(=O)[C@H](CCC(=O)O)NC(=O)[C@H](CC(N)=O)NC(=O)[C@H](CCSC)NC(=O)[C@@H](Cc1c[nH]c2ccccc12)NC(=O)[C@H](Cc1ccccc1)NC(=O)[C@@H](Cc1ccc(O)cc1)NC(=O)[C@H](CS)NC(=O)[C@@H](CCSC)NC(=O)[C@H](CCC(=O)O)NC(=O)CNC(=O)[C@H](CCCNC(=N)N)NC(C)=O)[C@H](C)O)C(=O)NCC(=O)N[C@@H](CCCCN)C(N)=O
# B4: AP501m (peptide)
# peptide: Ac-RGN[dW]N[dE]S[dK]MNEYYGW[dM]L[dM]C[dT]MGR-NH2
# SMILES: CSCC[C@H](NC(=O)[C@@H](CCCCN)NC(=O)[C@H](CO)NC(=O)[C@@H](CCC(=O)O)NC(=O)[C@H](CC(N)=O)NC(=O)[C@@H](Cc1c[nH]c2ccccc12)NC(=O)[C@H](CC(N)=O)NC(=O)CNC(=O)[C@H](CCCNC(=N)N)NC(C)=O)C(=O)N[C@@H](CC(N)=O)C(=O)N[C@@H](CCC(=O)O)C(=O)N[C@@H](Cc1ccc(O)cc1)C(=O)N[C@@H](Cc1ccc(O)cc1)C(=O)NCC(=O)N[C@@H](Cc1c[nH]c2ccccc12)C(=O)N[C@H](CCSC)C(=O)N[C@@H](CC(C)C)C(=O)N[C@H](CCSC)C(=O)N[C@@H](CS)C(=O)N[C@@H](C(=O)N[C@@H](CCSC)C(=O)NCC(=O)N[C@@H](CCCNC(=N)N)C(N)=O)[C@H](C)O
# B5: AP530m (peptide)
# peptide: Ac-RGE[dC]N[dY]F[dW]MNEYYGW[dT]M[dN]M[dR]MGK-NH2
# SMILES: CSCC[C@H](NC(=O)[C@@H](CCCNC(=N)N)NC(=O)[C@H](CCSC)NC(=O)[C@@H](CC(N)=O)NC(=O)[C@H](CCSC)NC(=O)[C@H](NC(=O)[C@H](Cc1c[nH]c2ccccc12)NC(=O)CNC(=O)[C@H](Cc1ccc(O)cc1)NC(=O)[C@H](Cc1ccc(O)cc1)NC(=O)[C@H](CCC(=O)O)NC(=O)[C@H](CC(N)=O)NC(=O)[C@H](CCSC)NC(=O)[C@@H](Cc1c[nH]c2ccccc12)NC(=O)[C@H](Cc1ccccc1)NC(=O)[C@@H](Cc1ccc(O)cc1)NC(=O)[C@H](CC(N)=O)NC(=O)[C@@H](CS)NC(=O)[C@H](CCC(=O)O)NC(=O)CNC(=O)[C@H](CCCNC(=N)N)NC(C)=O)[C@H](C)O)C(=O)NCC(=O)N[C@@H](CCCCN)C(N)=O
# Target: Aβ42 (UniProt P05067 672-713)
# Sequence (P05067 672-713 limits assumed): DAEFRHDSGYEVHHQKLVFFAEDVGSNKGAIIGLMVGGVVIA
# Assay: cell-based or functional assay
Binder,"% inhibition of fibril formation (ThT), AP:Aβ42 1:1","% inhibition of fibril formation (ThT), AP:Aβ42 1:10","% inhibition of fibril formation (ThT), AP:Aβ42 1:100"
B1,37.2%,9.1%,0%
Ac-RGE[dM]C[dY]F[dW]MNEYYGW[dT]M[dN]M[dR][Nle]GK-NH2 (also: disulfide-linked homodimer via Cys5) [AP532d],94.2%,75.4%,64.3%
Ac-RGE[dNle]N[dY]F[dW]MNEYYGW[dT]M[dN]M[dR]CGK-NH2 (also: disulfide-linked homodimer via Cys21) [AP533d],85.2%,68.2%,51.4%
Ac-RGE[dC]N[dY]F[dW]MNEYYGW[dT]M[dN]M[dR][Nle]GK-NH2 (also: disulfide-linked homodimer via Cys4) [AP531d],92.6%,78.6%,38.5%
B2,40.3%,0%,0%
Ac-RGN[dW]N[dE]S[dK]MNEYSGW[dM]L[dM]C[dT]MGR-NH2 (also: disulfide-linked homodimer via Cys19) [AP500d],100%,100%,72.2%
B3,62.1%,0%,0%
B4,29.2%,0%,0%
Ac-[dR]G[dE]M[dN]L[dS]W[dM][dN][dE][dY][dS]G[dW]T[dM]N[dC]K[dM]G[dR]-NH2 (also: homodimer: D-Cys19 disulfide-bonded to D-Cys19 of other copy) [AP526d],100%,88.6%,62.4%
B5,78.2%,31.6%,0%
